Measurements: PMC4786781

What was measured:
[1] = biological target: T1, Spo0J R82A R82A (Bacillus subtilis) (UniProt P26497); test: single-molecule PIFE, steady state, Hill fit (n=0.8±0.2); details: 150 mM NaCl, apparent Kd, Cy3-dUTP randomly incorporated, about 1 per kb, PIFE: 20 mM Tris pH 7.5, 100 ug/ml BSA, 100 mM NaCl (150 mM for Spo0J R82A Kd), flow 100 ul/min, BLItz: 20 mM Tris pH 7.5, 150 mM NaCl, 0.02% …
T1 sequence: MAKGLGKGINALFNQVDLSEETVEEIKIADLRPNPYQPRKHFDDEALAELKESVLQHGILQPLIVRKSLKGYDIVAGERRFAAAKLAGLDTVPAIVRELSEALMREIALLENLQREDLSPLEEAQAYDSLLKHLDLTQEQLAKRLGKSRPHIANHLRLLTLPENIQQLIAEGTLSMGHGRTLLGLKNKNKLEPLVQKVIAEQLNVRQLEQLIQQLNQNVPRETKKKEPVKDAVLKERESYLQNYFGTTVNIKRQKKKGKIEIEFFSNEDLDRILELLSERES

HBsu (Bacillus subtilis) = test: single-molecule PIFE and DNA length, two-state model; details: Cy3-dUTP randomly incorporated, about 1 per kb, PIFE: 20 mM Tris pH 7.5, 100 ug/ml BSA, 100 mM NaCl (150 mM for Spo0J R82A Kd), flow 100 ul/min, BLItz: 20 mM Tris pH 7.5, 150 mM NaCl, 0.02% …
[2] = biological target: T1, Spo0J R82A R82A (Bacillus subtilis); test: single-molecule PIFE kinetics, koff/kon; details: 150 mM NaCl, kon 2.1±0.2e6 M-1 s-1, koff 0.16±0.01 s-1, Cy3-dUTP randomly incorporated, about 1 per kb, PIFE: 20 mM Tris pH 7.5, 100 ug/ml BSA, 100 mM NaCl (150 mM for Spo0J R82A Kd), flow 100 ul/min, BLItz: 20 mM Tris pH 7.5, 150 mM NaCl, 0.02% …

20-kb Cy3-labelled DNA
Kd [1]: 60.5 nM | Kd (HBsu (Bacillus subtilis); K1, high-affinity bending mode, first dimer): 13 nM | Kd (HBsu (Bacillus subtilis); K2, low-affinity filament mode, second dimer): 390 nM | Kd [2]: 76.2 nM
